Reference: PMC9682730

Tests used:
FLAG-CHMP2B^Intron5 = FLAG-CHMP2B^Intron5 (UniProt Q9UQN3); assay: co-IP; anti-FLAG M2 affinity gel IP from lysates of transfected HEK293 cells, overnight at 4 °C, washed with 50 mM Tris-HCl pH 7.4, 150 mM NaCl, FLAG elution; western blot with spastin antibody; four independent experiments, normalised to the abundance of CHMP2B^WT versus CHMP2B^Intron5
[1] = target: spastin (human (endogenous in HEK293)) (UniProt Q9UBP0); assay: co-IP; reverse IP with spastin antibody from transfected cells, western blot with FLAG antibody; three independent experiments

FLAG-CHMP2B^Intron5, sequence (Q9UQN3 whole entry): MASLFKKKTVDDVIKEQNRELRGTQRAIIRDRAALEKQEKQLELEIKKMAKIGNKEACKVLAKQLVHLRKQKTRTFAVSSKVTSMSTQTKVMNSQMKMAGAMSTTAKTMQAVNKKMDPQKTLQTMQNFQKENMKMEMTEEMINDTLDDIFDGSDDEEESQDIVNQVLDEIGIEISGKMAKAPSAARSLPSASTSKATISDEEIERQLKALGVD

fold of spastin pulled down against CHMP2B^WT (FLAG-CHMP2B^Intron5) [times]	fold of CHMP2B pulled down by spastin antibody against CHMP2B^WT [1] [times]	Substance
11		spastin (from UniProt Q9UBP0 87-616) (natural protein)
	3.3	FLAG-CHMP2B^Intron5 (from UniProt Q9UQN3 1-213) (natural protein)
